Experiments:
[1] = PPi production from dUTP (dUTPase activity), Sigma Enzymatic Determination of Pyrophosphate kit; assay type: biochemical
Experimental: In experiments to investigate whether PPi is formed during the reaction, 900 or 1800 ng of PEF was incubated with 10 mM dUTP in 1× cloned Pfu polymerase buffer for 1 hour at 72° C. The presence of PPi in the reaction mixture was then quantified using Sigma's Enzymatic Determination of Pyrophosphate kit (Sigma Product No. P7275). The kit utilizes a coupled enzyme system whereby two moles of NADH are oxidized to NAD^+ for each mole of PPi present in the reaction mixture. The oxidation of NADH is monitored spectrophotometrically at 340 nm. […] The reactions that contained 1800 ng of PEF produced twice as much PPi as those that contained 900 ng of PEF.
The temperature optimum (Topt) for the generation of PPi from dUTP was measured by incubating mixtures of dUTP and native PEF at temperatures ranging from 73° C. to 99° C. PPi production by native PEF increased steadily over this temperature range and was highest at 99° C. […]
The enzyme activity of three different preparations of S200-purified native PEF was measured at 85° C. Protein concentrations were determined by both Bradford and by amino acid analysis. Shown below is a summary of the enzyme activity and specific activity (protein concentration determined by Bradford or AAA as indicated) of S200-purified native PEF. […]

Taq DNA polymerase = Taq DNA polymerase (Thermus aquaticus, UniProt P19821); experiment: PCR with Taq DNA polymerase; assay type: biochemical
Sequence of Taq DNA polymerase (P19821 whole entry): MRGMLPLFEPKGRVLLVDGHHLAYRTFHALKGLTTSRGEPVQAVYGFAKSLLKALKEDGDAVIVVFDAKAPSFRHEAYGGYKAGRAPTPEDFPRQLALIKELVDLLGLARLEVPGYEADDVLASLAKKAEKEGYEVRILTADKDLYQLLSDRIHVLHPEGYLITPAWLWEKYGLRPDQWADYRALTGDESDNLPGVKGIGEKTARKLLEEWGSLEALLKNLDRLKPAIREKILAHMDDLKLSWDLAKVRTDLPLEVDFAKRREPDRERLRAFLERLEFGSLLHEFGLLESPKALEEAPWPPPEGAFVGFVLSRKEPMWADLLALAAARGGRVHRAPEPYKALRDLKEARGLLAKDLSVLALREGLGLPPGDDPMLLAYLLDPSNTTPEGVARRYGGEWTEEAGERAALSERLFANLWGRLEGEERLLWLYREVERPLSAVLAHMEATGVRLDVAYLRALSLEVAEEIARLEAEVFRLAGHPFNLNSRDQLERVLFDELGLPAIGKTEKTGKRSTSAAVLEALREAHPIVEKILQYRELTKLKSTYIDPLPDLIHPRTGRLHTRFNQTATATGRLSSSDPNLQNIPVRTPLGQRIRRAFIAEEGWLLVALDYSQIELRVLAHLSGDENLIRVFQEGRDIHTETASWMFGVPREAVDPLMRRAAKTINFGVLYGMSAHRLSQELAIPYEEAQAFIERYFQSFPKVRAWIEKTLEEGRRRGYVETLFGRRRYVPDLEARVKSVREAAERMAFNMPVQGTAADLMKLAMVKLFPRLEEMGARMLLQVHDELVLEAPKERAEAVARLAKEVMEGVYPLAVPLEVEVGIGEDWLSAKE
Experimental: FIGS. 33, 34, 35, and 36. Enhancing activity of P. furiosus PEF in PCRs conducted with Pwo (FIG. 33); JDF-3 (FIGS. 34 and 35), ES4 and Vent (FIG. 35). and Deep Vent (FIG. 36) DNA polymerases. In FIG. 33, 25 μl PCRs were conducted using the 6.2 kb test system (example 1) with 25 U/ml Pwo DNA polymerase and 1× cloned Pfu PCR buffer. 1 μl of S200-purified P. furiosus PEF (prep 1; 225 ng/μl) was added undiluted (lane 1) or diluted 1:10 (lane 2), 1:1000 (lane 3), 1:10,000 (lane 4). 1 μl of dilution buffer was added as a negative control (lane 5). In FIG. 34, a 10 kb lambda DNA-target was amplified from lambda DNA (lanes 1-4; 5-7; 11-13) or mouse genomic DNA, containing 40 copies (lanes 8-10) or 1 copy (lanes 14-16) of a lambda DNA transgene. 100 μl PCRs were conducted with 250 ng of lambda DNA (Sigma) or mouse genomic DNA and 250 ng of primers (F51-20 5′[…] (SEQ ID NO: 22); R10163-20 5′CCA-TCT-CAC-GCG-CCA-GTT-TC) (SEQ ID NO: 23). PCRs were conducted in Taq PCR buffer using 5 U Taq DNA polymerase (lanes 1-4) or 1 U JDF3 DNA polymerase (lanes 5-16). 1 μl of the following was added to PCRs: S200-purified PEF (prep. 3; 550 ng/μl PEF) diluted 1:500 (lanes 2, 12, 15), 1:100 (lanes 6, 9), 1:50 (lane 3), 1:10 (lanes 7, 10, 13, 16), or 1:5 (lane 4). 1 μl of dilution buffer was added as a negative control (lanes 1, 5, 8, 11, 14). […]

B1: PEF: polymerase enhancing factor complex purified from Pyrococcus furiosus; predominant components P50 and P45 (protein)
chain 1: MLHHVKLIYATKSRKLVGKKIVXXXPGSIAALDVKACEGLIRHGAEVHAVMSEAATKIIHPYAWNLPTGNPVITEITGFIEHVELAGEHENKADLILVCPATANTISKIACGIDDTPVTTVVTTAFPHIPIMIAPAMHETMYRHPIVRENIERLKKLGVEFIGPRIEEGRAKVASIDEIVYRVIKKLHKKTLEGKRVLVTAGATREYIDPIRFITNASSGKMGVALAEEADFRGAVTLIRTKGSVKAFRIRKIKLKVETVEEMLSAIENELRSKKYDVVIMAAAVSDFRPKIKAEGKIKSGRSITIELVPXNPKIIDRIKEIQPNVFLVGFKAETSKEKLIEEGKRQIERAKADLVVGNTLEAFGSEENQVVLIGRDFTKELPKMKKRELAERIWDEIEKXLS
chain 2: MLLPDWKIRKEILIEPFSEESLQPAGYDLRVGREAFVKGKLIDVEKEGKVVIPPREYALILTLERIKLPDDVMGDMKIRSSLAREGVIGSFAWVDPGWDGNLTLMLYNASNEPVELRYGERFVQIAFIRLEGPARNPYRGNYQGSTRLAFSKRKKL
modifications: not fully specified; X: residue not identified in the source
notes: polymerase enhancing factor complex purified from Pyrococcus furiosus; predominant components P50 and P45
In the case of B1, the “PPi production from dUTP (in words)” value [1] is reported as “clearly established”, the “temperature optimum (Topt) for the generation of PPi from dUTP” value ([1]; tested from 73° C. to 99° C.) is reported as > 99 °C and the “yield of PCR products generated with Taq DNA polymerase” value (Taq DNA polymerase) is reported as “may not enhance the yield”.
